Values quoted from earlier work as cited in patent US20240156960A1 (priority 2020, published 2024).
Substitutions are numbered along the chain they refer to. Where two headings read alike, the source gives them in different places.

B1: C128 (antibody, listed as Homo sapiens, V domains shown)
VH: EVQLLESGGGLVQPGGSLRLSCAASGFTFSTYAMSWVRQAPGKGLEWVSTITGSGRDTYYADSVKGRFTISRDNSKNTLFLQLNSLRAEDAAVYSCANHPLASGDDYYHYYMDVWGKGTTVTVSS
VL: EIVLTQSPGTLSLSPGERATLSCRASQSVNSRQLAWYQQKPGQAPRLLIYGASSRATGIPERFSGSGSGTDFTLTISRLESEDFAVYHCQQYGSSRALTFGGGTKVEIK
B2: C130 (antibody, listed as Homo sapiens, V domains shown)
VH: QVQLVQSGAEVKKPGASVKVSCKASGYTFTNYYMHWVRQAPGQGLEWMGIINPSGGSTGYAQKFQGRVTMTRDTSTSTVYMELSSLRSEDTAVYYCARSRPTPDWYFDLWGRGTLVTVSS
VL: SYELTQPPSVSVAPGKTARITCGGNNIGSKSVHWYQQKPGQAPVLVIYYDSDRPSGIPERFSGSNSGNTATLTISRVEAGDEADYYCQVWDSSSDHPGVVFGGGTKLTVL
B3: C126 (antibody, listed as Homo sapiens, V domains shown)
VH: QVQLQESGPGLVKPSETLSLSCAVSGGSIGSYFWSWIRQPPGKGLEWIGYLHYSGSTNYNPSLKSRVTISVDTSKNQFSLKLSSVTAADTAVYYCARLQWLRGAFDIWGQGTMVTVSS
VL: NFMLTQPHSVSESPGKTVTISCTGSSGSIASNYVQWYQQRPGSAPTTVINEDNQRPSGVPDRFSGSIDSSSNSASLTISGLKTEDEADYYCQSYDSSNLVFGGGTKLTVL
B4: C114 (antibody, listed as Homo sapiens, V domains shown)
VH: QVQLVESGGGLIQPGGSLKLSCVVSGFTVSKNYISWVRQAPGKGLEWVSVIFAGGSTFYADSVKGRFAISRDNSNNTLFLQMNSLRVEDTAIYYCARGDGELFFDQWGQGTLVTVSS
VL: QSVLTQPPSVSGAPGQRVTISCTGTSSNIGAGYDVHWYQQLPGRAPKVLISGNNIRPSEVPDRFSGSRSGTSASLAITSLQPEDEAQYYCQSYDSSLYAVFGGGTKLTVL
B5: C118 (antibody, listed as Homo sapiens, V domains shown)
VH: QVQLVESGGGVVQPGRSLRLSCAASGFTFSNYAMHWVRQAPGKGLEWVAVISYDGSNKYYADSVKGRFTISRDNSKNTLYLQMNSLRAEDTAIYYCASGYTGYDYFVRGDYYGLDVWGQGTTVTVSS
VL: QPVLTQSPSASASLGASVKLTCTLSSGHSSYAIAWHQQQPEKGPRYLMKLNTDGSHSKGDGIPDRFSGSSSGAERYLTISSLQSEDEADYYCQTWGTGILVFGGGTKLTVL
B6: C022 (antibody, listed as Homo sapiens, V domains shown)
VH: QVQLQESGPGLVKPSETLSVTCTVSGGSISSSRYYWGWIRQPPGKGLEWIGSIYYSGSTYYNPSLKSRVTISVDTSKNQFSLKLSSVTAADTAVYYCARHAAAYYDRSGYYFIEYFQHWGQGTLVTVSS
VL: DIQMTQSPSTLSASVGDSVTITCRASQSISSWLAWYQQKPGKAPKLLIYKASSLESGVPSRFSGSGSGTEFTLTISSLQPDDFATYYCQQYNNYRYTFGQGTKLEIK
B7: C113 (antibody, listed as Homo sapiens, V domains shown)
VH: QVQLVESGGGVVQPGRSLRLSCAASGFTFSNFGMHWVRQAPGKGLEWVAVIWYDGSNKYYADSVKGRFTISRDNSKNTLYLQMNSLRAEDTAVYYCARGVNPDDILTGVDAFDIWGQGTMVTVSS
VL: B6 VL with S18R, I29M, K42N, Y91H, N93S, Y94S, R95P, Y96L, Q100G, L104V
B8: 9A1 (antibody, listed as Homo sapiens, V domains shown)
VH: EVQLLESGGGVVQPGRSLRLSCVVSGFTFNNYGMHWVRQAPGKGLEWVAVISYEGSVKYYGDHVDGRFTISRDPFKNTLYLHMNNLRPDDTAVYYCAKVSAIFWLGQGLSPIDVWGQGTTVTVSS
VL: DIVMTQSPATLSASPGERVTLSCRASQNIRNNLAWYQQKPGQAPRLLIHGASTRAAGAPARFSGSGSDTQFTLTVSSLQSEDFAVYYCHQYSKWPVTFGGGTKVDIK
B9: C116 (antibody, listed as Homo sapiens, V domains shown)
VH: QVQLVESGGGVVQPGRSLRLSCAASGFTYSTYAMHWVRQAPGKGLEWVAFISYDGSNKYYADSVKGRFTISRDNSKNTLYLQMNSLRAEDTAVYYCARDFYHNWFDPWGQGTLVTVSS
VL: NFMLTQPHSVSESPGKTVTISCTGSSGSIASNYVQWYQQRPGSAPTTVIYEDNQRPSGVPDRFSGSIDRSSNSASLTISGLKTEDEADYYCQSYDSGNHWVVFGGGTRLTVL

Legend:
SARS-CoV2 = settings: source Davide Robbiani et al., 2020
SARS-CoV1 [1] = tested on: SARS-CoV1
SARS-CoV2 S; RBD = SARS-CoV2 S; RBD (Severe acute respiratory syndrome coronavirus 2, UniProt P0DTC2); settings: epitope S
SARS-CoV1 [2] = tested on: SARS-CoV1; remark: listed apart in the source
SARS-CoV1 [3] = tested on: SARS-CoV1; remark: listed apart in the source
[4] = tested on: coronavirus named in the cell (SARS-CoV2, SARS-CoV1), S protein
[5] = tested on: coronavirus named in the cell (SARS-CoV2, SARS-CoV1)

Molecule | Binds to (SARS-CoV2 S; RBD) | Not Neutralising Vs (SARS-CoV1 [2]) | further results
B1 |  |  | Binds to (SARS-CoV2): SARS-CoV2; Not Neutralising Vs (SARS-CoV1 [1]): SARS-CoV1
B2 |  |  | Binds to (SARS-CoV2): SARS-CoV2; Not Neutralising Vs (SARS-CoV1 [1]): SARS-CoV1,
B3 | SARS-CoV2 | SARS-CoV1, | 
B4 | SARS-CoV2 | SARS-CoV1, | 
B5 | SARS-CoV2 |  | Binds to (SARS-CoV1 [3]): SARS-CoV1,
B6 | SARS-CoV2 |  | Binds to (SARS-CoV1 [3]): SARS-CoV1,
B7 | SARS-CoV2 | SARS-CoV1, | 
B8 |  |  | Binds to [4]: SARS-CoV2; Not Neutralising Vs [5]: SARS-CoV2
B9 | SARS-CoV2 | SARS-CoV1, | 
